Legend:
[1] = target: HpiI (Hymenoscyphus scutula); test: crystal structure
[2] = target: PdxI (Aspergillus bombycis); test: crystal structure

Row | Substance | stoichiometry N [1] | stoichiometry N [2]
1 | HpiI (enzyme) | 2 | 
2 | PdxI (enzyme) |  | 2

— publication PMC7534572
